B1: Gamma-aminobutyric acid receptor-associated protein (Homo sapiens), O95166 (parent)
chain: MKFVYKEEHPFEKRRSEGEKIRKKYPDRVPVIVEKAPKARIGDLDKKKYLVPSDLTVGQFYFLIRKRIHLRAEDALFFFVNNVIPPTSATMGQLYQEHHEEDFFLYIAYSDESVYGL
partner: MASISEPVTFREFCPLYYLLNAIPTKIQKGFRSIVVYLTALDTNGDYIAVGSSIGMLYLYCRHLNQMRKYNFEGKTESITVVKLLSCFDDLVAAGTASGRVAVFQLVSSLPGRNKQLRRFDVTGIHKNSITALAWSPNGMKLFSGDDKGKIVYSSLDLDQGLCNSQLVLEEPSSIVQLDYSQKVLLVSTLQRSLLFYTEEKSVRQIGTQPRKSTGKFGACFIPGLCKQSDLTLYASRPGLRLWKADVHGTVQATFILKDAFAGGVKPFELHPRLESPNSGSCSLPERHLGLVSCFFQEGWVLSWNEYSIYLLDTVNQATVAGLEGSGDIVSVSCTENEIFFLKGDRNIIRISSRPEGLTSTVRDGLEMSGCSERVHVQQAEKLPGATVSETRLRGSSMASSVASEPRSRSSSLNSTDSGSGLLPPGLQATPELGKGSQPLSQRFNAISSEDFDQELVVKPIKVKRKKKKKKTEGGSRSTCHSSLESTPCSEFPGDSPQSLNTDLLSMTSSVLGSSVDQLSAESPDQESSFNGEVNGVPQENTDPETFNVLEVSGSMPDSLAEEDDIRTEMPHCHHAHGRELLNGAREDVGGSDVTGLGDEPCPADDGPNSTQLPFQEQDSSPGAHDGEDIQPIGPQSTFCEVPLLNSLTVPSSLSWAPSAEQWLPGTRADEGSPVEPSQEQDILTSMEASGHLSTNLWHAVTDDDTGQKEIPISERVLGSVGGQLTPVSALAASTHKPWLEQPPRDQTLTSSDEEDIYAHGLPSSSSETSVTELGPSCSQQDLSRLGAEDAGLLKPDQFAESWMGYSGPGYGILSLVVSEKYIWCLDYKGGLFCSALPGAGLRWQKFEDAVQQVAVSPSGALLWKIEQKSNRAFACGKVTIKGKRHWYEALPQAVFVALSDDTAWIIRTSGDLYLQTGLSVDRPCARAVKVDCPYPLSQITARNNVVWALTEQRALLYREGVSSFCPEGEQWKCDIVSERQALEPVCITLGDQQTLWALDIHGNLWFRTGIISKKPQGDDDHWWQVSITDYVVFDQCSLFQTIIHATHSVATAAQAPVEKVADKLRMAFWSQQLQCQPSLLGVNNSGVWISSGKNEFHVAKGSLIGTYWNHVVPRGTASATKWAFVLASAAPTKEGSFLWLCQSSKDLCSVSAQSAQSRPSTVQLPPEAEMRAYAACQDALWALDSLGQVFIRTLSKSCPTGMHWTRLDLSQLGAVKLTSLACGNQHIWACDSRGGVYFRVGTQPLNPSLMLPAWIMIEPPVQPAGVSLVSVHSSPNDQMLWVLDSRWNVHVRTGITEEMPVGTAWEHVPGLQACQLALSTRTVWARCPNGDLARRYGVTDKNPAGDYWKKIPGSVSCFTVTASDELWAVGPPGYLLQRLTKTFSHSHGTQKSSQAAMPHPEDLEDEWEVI
B2: Gamma-aminobutyric acid receptor-associated protein (Homo sapiens), O95166 (parent)
chain: B1 chain
partner: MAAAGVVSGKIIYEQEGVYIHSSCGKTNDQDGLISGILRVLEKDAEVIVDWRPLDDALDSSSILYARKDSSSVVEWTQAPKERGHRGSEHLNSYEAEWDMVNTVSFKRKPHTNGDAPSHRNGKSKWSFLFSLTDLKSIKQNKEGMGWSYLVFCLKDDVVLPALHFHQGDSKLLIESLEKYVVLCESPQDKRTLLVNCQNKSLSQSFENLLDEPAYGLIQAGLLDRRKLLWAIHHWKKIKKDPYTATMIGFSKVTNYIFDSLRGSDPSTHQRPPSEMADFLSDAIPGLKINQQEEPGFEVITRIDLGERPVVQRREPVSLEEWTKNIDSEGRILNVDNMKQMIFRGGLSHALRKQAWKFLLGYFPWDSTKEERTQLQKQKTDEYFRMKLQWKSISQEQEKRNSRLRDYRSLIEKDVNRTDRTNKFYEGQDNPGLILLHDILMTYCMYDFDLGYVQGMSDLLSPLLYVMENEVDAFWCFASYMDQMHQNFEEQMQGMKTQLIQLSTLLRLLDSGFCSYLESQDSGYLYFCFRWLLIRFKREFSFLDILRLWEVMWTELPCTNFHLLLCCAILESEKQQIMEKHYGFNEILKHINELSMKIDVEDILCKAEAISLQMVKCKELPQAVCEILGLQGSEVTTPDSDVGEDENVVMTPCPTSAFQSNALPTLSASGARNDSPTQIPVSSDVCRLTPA
B3: Gamma-aminobutyric acid receptor-associated protein (Homo sapiens), O95166 (parent)
chain: B1 chain
partner: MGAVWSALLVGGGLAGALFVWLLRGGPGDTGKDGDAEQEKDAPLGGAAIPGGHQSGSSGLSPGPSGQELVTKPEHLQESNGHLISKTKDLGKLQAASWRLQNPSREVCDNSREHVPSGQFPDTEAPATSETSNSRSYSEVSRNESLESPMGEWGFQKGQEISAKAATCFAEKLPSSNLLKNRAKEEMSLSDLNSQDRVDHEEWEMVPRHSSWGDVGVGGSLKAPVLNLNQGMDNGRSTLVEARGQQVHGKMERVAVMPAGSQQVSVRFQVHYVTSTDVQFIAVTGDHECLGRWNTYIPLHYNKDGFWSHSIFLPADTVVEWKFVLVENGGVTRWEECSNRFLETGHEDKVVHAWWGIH
B4: Gamma-aminobutyric acid receptor-associated protein (Homo sapiens), O95166 (parent)
chain: B1 chain
partner: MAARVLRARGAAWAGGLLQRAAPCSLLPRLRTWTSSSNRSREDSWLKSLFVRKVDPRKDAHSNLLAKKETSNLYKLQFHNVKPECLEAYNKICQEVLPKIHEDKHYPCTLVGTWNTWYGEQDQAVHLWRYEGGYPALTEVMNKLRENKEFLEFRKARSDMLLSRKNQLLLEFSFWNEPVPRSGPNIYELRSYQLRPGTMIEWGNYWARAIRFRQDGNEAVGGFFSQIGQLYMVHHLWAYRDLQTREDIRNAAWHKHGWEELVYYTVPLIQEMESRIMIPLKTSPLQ
B5: Gamma-aminobutyric acid receptor-associated protein (Homo sapiens), O95166 (parent)
chain: B1 chain
partner: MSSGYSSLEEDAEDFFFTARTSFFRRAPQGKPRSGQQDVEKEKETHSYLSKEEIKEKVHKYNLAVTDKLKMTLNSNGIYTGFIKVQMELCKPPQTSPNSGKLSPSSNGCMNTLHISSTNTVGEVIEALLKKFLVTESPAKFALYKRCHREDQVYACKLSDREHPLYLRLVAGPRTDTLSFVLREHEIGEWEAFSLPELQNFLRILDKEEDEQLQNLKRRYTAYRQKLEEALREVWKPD
B6: Gamma-aminobutyric acid receptor-associated protein (Homo sapiens), O95166 (parent)
chain: B1 chain
partner: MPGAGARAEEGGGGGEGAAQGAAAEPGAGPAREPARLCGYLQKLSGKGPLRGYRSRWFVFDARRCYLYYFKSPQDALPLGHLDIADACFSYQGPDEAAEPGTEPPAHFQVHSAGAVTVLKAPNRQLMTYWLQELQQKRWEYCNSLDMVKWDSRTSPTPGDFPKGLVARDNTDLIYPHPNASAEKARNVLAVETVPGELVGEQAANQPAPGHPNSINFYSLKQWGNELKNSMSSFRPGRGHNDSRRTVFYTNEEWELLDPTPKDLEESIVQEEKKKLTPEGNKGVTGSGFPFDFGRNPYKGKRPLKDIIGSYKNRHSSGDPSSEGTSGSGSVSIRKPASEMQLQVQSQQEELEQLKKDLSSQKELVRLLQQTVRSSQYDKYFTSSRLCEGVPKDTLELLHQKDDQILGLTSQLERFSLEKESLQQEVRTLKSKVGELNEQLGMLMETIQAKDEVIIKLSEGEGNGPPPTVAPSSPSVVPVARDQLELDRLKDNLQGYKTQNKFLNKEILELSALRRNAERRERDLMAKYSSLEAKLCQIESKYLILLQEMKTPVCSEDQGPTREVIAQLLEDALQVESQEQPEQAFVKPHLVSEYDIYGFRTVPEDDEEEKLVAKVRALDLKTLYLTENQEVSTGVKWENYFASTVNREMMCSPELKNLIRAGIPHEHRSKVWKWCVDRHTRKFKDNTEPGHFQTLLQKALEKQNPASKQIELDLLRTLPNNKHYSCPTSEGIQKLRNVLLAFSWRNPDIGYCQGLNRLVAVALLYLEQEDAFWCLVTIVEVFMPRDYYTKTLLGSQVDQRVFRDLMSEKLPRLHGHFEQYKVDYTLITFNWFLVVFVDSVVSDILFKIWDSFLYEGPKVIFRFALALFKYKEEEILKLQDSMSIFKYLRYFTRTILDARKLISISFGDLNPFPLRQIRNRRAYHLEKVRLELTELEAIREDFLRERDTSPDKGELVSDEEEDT

Variants of: B1
Details: with tcpr2_human TECPR2, O15040

effect of a mutation on the interaction	Variant
decreasing interaction	Y49A;L50A

Variants of: B2
Details: with tbc15_human TBC1D15, Q8TC07

effect of a mutation on the interaction	Variant
disrupting interaction	Y49A;L50A

Variants of: B3
Details: with stbd1_human STBD1, O95210

effect of a mutation on the interaction	Variant
decreasing interaction	Y49A;L50A

Variants of: B4
Details: with nips2_human NIPSNAP2, O75323

effect of a mutation on the interaction	Variant
increasing interaction	Y49A;L50A

Variants of: B5
Details: with rasf3_human RASSF3, Q86WH2

effect of a mutation on the interaction	Variant
decreasing interaction	Y49A;L50A

Variants of: B6
Details: with tbd2b_human TBC1D2B

effect of a mutation on the interaction	Variant
decreasing interaction	Y49A;L50A

Reference: IntAct's records for PubMed 20562859
